Measured values published in patent publication US20180221507A1 (IMAGINAB, published 2018).

Target: T1, CD8 expressed on the surface of HPB-ALL cells (UniProt P01732 22-235)
T1 construct: whole, on cells
Assay: flow cytometry on HPB-ALL cells, MFI against concentration, four-parameter fit
Description: The cells were centrifuged at 400 rpm for 5 minutes, re-suspended in 200 uL of cell staining buffer (1% BSA in phosphate buffer saline, 0.09% sodium azide). Data were acquired on the Attune Acoustic Focusing Cytometer (Applied Biosystems, Foster City, Calif.) (FIG. 9A) and Mean Fluorescent Intensity (MFI) values were plotted against concentration for each sample (FIG. 9B). Best fit binding curves and IC₅₀ values were generated with four-parameter logistic nonlinear regression using GraphPad Prism version 6 for Windows (GraphPad Software, La Jolla, Calif.). and binding assessed on an Attune acoustic focusing cytometer (Applied Biosystems) (Table 4.3).

T1 sequence (P01732 22-235): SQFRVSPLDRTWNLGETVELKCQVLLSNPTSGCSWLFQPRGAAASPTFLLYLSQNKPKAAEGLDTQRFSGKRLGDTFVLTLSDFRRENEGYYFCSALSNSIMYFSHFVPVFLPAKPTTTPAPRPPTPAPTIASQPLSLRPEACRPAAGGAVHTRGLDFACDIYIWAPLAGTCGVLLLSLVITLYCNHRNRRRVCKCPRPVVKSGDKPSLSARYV

B1: IAB22C-1 (other)
scFv: DVQITQSPSSLSASVGDRVTITCRTSRSISQYLAWYQQKPGKVPKLLIYSGSTLQSGVPSRFSGSGSGTDFTLTISSLQPEDVATYYCQQHNENPLTFGGGTKVEIKGGGSGGGGEVQLVESGGGLVQPGGSLRLSCAASGFNIKDTYIHFVRQAPGKGLEWIGRIDPANDNTLYASKFQGKATISADTSKNTAYLQMNSLRAEDTAVYYCGRGYGYYVFDHWGQGTLVTVSSGGC
notes: Cys-diabody (scFv dimer); also called anti-CD8 Cys-diabody, 1 Cys (GGC)
How did the EC50 turn out when B1 was run?
Its EC50 is 80 pM.

B2: IAB22C-2 (other)
scFv: DVQITQSPSSLSASVGDRVTITCRTSRSISQYLAWYQQKPGKVPKLLIYSGSTLQSGVPSRFSGSGSGTDFTLTISSLQPEDVATYYCQQHNENPLTFGGGTKVEIKSGGGGEVQLVESGGGLVQPGGSLRLSCAASGFNIKDTYIHFVRQAPGKGLEWIGRIDPANDNTLYASKFQGKATISADTSKNTAYLQMNSLRAEDTAVYYCGRGYGYYVFDHWGQGTLVTVSSGGCPPC
notes: Cys-diabody (scFv dimer); also called anti-CD8 Cys-diabody, 2 Cys (CPPC)
How did the EC50 turn out when B2 was run?
The EC50 was 150 pM.

B3: IAB22C-3 (other)
scFv: DVQITQSPSSLSASVGDRVTITCRTSRSISQYLAWYQQKPGKVPKLLIYSGSTLQSGVPSRFSGSGSGTDFTLTISSLQPEDVATYYCQQHNENPLTFGGGTKVEIKSGGGGEVQLVESGGGLVQPGGSLRLSCAASGFNIKDTYIHFVRQAPGKGLEWIGRIDPANDNTLYASKFQGKATISADTSKNTAYLQMNSLRAEDTAVYYCGRGYGYYVFDHWGQGTLVTVSSGGCPPCPPC
notes: Cys-diabody (scFv dimer); also called anti-CD8 Cys-diabody, 3 Cys (CPPCPPC)
B3 was tested. Which EC50 did it give?
The EC50 was 130 pM.
